Source: patent US20070286858A1 (Pfizer, published 2007)
Numbering of substitutions follows the chain as printed. “And” between values parts separate entries of the source, which are not always exact repeats. Identical values can stand only once. Values belong to the binder of their own block, whether it stands above or below them.

How the values were obtained:
[1] = target: T1, soluble human streptavidin-tagged RAGE (human, UniProt Q15109 23-344); assay: BIACORE capture, hRAGE-SA over captured antibody, 1:1 Langmuir global fit, FC2
T1 construct: also called hRAGE-SA; human RAGE-strep
Procedure: (§1) The assays were performed by coating anti-human Fc antibodies onto a CM5 BIA chip with 5000 RU (pH 5.0, 7 min.) in flow cells 1-4. Each antibody was captured by flowing at 2.0 μg/ml over the anti-Fc antibodies in flow cells 2-4 (flow cell 1 was used as a reference).

[2] = target: T1, soluble human streptavidin-tagged RAGE; assay: BIACORE capture, hRAGE-SA over captured antibody, steady state affinity, FC3
Procedure: as §1

[3] = target: T2, murine RAGE-strep tag fusion protein (mouse, UniProt Q62151 23-343); assay: BIACORE capture, SA-Mu RAGE over captured antibody, 1:1 Langmuir global fit, row Average
T2 construct: also called mRAGE-strep; mRAGE-SA
T2 chain: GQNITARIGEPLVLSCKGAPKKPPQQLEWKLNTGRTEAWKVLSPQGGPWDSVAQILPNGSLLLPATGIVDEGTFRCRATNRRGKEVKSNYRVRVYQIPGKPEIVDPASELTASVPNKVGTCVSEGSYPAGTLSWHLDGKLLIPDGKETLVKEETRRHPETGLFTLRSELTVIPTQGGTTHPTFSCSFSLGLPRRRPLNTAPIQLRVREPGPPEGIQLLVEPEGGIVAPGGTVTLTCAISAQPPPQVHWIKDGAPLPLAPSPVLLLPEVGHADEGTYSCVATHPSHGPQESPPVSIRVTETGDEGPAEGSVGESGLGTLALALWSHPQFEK
Procedure: as §1

[4] = target: T2, murine RAGE-strep tag fusion protein; assay: BIACORE capture, SA-Mu RAGE over captured antibody, 1:1 Langmuir global fit, FC3
Procedure: as §1

[5] = target: T2, murine RAGE-strep tag fusion protein; assay: BIACORE capture, SA-Mu RAGE over captured antibody, 1:1 Langmuir global fit, FC2
Procedure: as §1

[6] = target: T1, soluble human streptavidin-tagged RAGE; assay: BIACORE capture, hRAGE-SA over captured antibody, steady state affinity, FC2
Procedure: as §1

[7] = target: T1, soluble human streptavidin-tagged RAGE; assay: BIACORE capture, hRAGE-SA over captured antibody, 1:1 Langmuir global fit, FC3
Procedure: as §1

[8] = target: T1, soluble human streptavidin-tagged RAGE; assay: BIACORE capture, hRAGE-SA over captured antibody, 1:1 Langmuir global fit, FC4
Procedure: as §1

[9] = target: T1, soluble human streptavidin-tagged RAGE; assay: BIACORE capture, hRAGE-SA over captured antibody, steady state affinity, FC4
Procedure: as §1

[10] = target: T1, soluble human streptavidin-tagged RAGE; assay: BIACORE capture, hRAGE-SA over captured antibody, steady state affinity, row Average
Procedure: as §1

[11] = target: T1, soluble human streptavidin-tagged RAGE; assay: BIACORE capture, hRAGE-SA over captured antibody, 1:1 Langmuir global fit, row Average
Procedure: as §1

[12] = target: T2, murine RAGE-strep tag fusion protein; assay: BIACORE capture, SA-Mu RAGE over captured antibody, 1:1 Langmuir global fit, FC4
Procedure: as §1

[13] = target: T3, human RAGE-Fc fusion protein (human, UniProt Q15109 23-344); assay: competition ELISA on coated hRAGE-Fc; competitor 12.5 ng/ml biotinylated rat XT-M4
T3 construct: also called hRAGE-Fc; huRAGE-Fc; not shown: Fc domain of human IgG
Procedure: ELISA plates were coated overnight with 1 ug/ml human RAGE-Fc. […] Briefly, plates were coated overnight with 1 ug/ml human RAGE-Fc.

[14] = target: T3, human RAGE-Fc fusion protein; assay: ELISA of in vitro translated ScFv on coated human RAGE-Fc, anti-Flag detection
Procedure: ELISA plates coated with human RAGE-Fc (5 ug/ml) or BSA (200 ug/ml) in bicarbonate buffer overnight at 4° C., washed with PBS+tween 0.05% and blocked for 1 hour at room temperature with 2% milk powder PBS. Plates were incubated with in vitro translated ScFv for 2 hours at room temp. Plates were blocked and detection was with anti-Flag antibody (1/1000 dilution) followed by rabbit anti-mouse HRP (1/1000 dilution). […] Values for Kd of the ScFv in both formats as determined by BIACORE™ are used to determine the optimum antigen concentrations for selection experiments.

BSA = target: T4, BSA (Bos taurus, UniProt P02769); assay: ELISA of E. coli periplasmic ScFv cross-linked with anti-His antibody, on coated BSA
T4 construct: control antigen in the ScFv ELISA; also called bovine serum albumin
T4 sequence (P02769 25-607 limits assumed): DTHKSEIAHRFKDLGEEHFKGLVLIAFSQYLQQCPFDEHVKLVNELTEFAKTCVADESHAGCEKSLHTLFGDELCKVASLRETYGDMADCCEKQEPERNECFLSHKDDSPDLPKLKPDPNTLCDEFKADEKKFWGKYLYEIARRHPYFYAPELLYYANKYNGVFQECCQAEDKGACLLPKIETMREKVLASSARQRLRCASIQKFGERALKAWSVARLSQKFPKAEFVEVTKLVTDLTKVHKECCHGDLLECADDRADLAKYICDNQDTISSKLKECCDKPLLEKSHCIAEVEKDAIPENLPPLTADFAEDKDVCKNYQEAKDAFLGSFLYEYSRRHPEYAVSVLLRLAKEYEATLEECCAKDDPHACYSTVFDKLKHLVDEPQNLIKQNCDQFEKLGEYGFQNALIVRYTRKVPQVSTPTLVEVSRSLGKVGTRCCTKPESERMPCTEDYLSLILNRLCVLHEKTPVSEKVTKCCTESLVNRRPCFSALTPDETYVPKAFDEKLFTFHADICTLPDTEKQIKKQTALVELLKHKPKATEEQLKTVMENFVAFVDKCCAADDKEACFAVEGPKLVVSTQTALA
Procedure: ActRIIb represents a non-binding protein expressed from the same vector as a negative control. ELISA plates were coated with human RAGE-Fc (5 ug/ml) or BSA (200 ug/ml) in bicarbonate buffer overnight at 4 °C, washed with PBS+tween 0.05% and blocked for 1 hour at room temperature with 2% milk powder PBS. Periplasmic preparations of 20 ml E. coli cultures were performed using standard procedures. The final volume of periplasmic preparations of unpurified ScFv antibodies was 1 ml of which 50 ul was pre-incubated with anti-His antibody at 1/1000 dilution for 1 hour at room temperature in a total volume of 100 ul with 2% milk powder PBS. The cross linked periplasmic preparations were added to the ELISA plate and incubated for a further 2 hours at room temperature. The plates were washed 2 times with PBS+0.05% tween and 2 times with PBS and incubated with rabbit anti-mouse HRP at 1/1000 dilution in 2% milk powder PBS. The plates were washed as before and binding was detected using standard TMB reagents. […] Starting Kd values of the ScFv in both formats as determined by BIACORE™ are used to determine the optimum antigen concentrations for affinity selections.

B1: XT-M4-V14 (antibody, V domains shown)
VH: EVQLVESGGGLVQPGGSLRLSCAASGFTFNNYWMTWVRQAPGKGLEWVASIDNSGDNTYYPDSVKDRFTISRDNAKNSLYLQMNSLRAEDTAVYYCARGGDITTGFDYWGQGTLVTVSS
VL: DIQMTQSPSSLSASVGDRVTITCRASQDVGIYVNWFQQKPGKAPKRLIYRATNLADGVPSRFSGSRSGTDFTLTISSLQPEDFATYYCLEFDEHPLTFGGGTKVEIK
Kd [1]: 13.8 nM
koff [1]: 0.0366 s⁻¹
kon [1]: 2.66e+06 M⁻¹ s⁻¹
Kd [2]: 15 nM
Kd [3]: 2 nM
koff [3]: 0.0042 s⁻¹
kon [3]: 2.1e+06 M⁻¹ s⁻¹
Kd [4]: 1.9 nM
koff [4]: 0.004 s⁻¹
kon [4]: 2.1e+06 M⁻¹ s⁻¹
Kd [5]: 2 nM
koff [5]: 0.0043 s⁻¹
kon [5]: 2.2e+06 M⁻¹ s⁻¹
Kd [6]: 16 nM
Kd [7]: 11.7 nM
koff [7]: 0.0464 s⁻¹
kon [7]: 3.96e+06 M⁻¹ s⁻¹
Kd [8]: 13.2 nM
koff [8]: 0.0661 s⁻¹
kon [8]: 5.02e+06 M⁻¹ s⁻¹
Kd [9]: 16 nM
Kd [10]: 16 nM
Kd [11]: 12.9 nM
koff [11]: 0.0497 s⁻¹
kon [11]: 3.88e+06 M⁻¹ s⁻¹
Kd [12]: 2 nM
koff [12]: 0.0041 s⁻¹
kon [12]: 2.1e+06 M⁻¹ s⁻¹

B2: XT-M4-V11 (antibody, V domains shown)
VH: B1 VH
VL: B1 VL with K45R
Kd [1]: 13 nM
koff [1]: 0.033 s⁻¹
kon [1]: 2.5e+06 M⁻¹ s⁻¹
Kd [2]: 15 nM
Kd [3]: 2 nM
koff [3]: 0.0042 s⁻¹
kon [3]: 2.1e+06 M⁻¹ s⁻¹
Kd [4]: 2 nM
koff [4]: 0.0042 s⁻¹
kon [4]: 2.1e+06 M⁻¹ s⁻¹
Kd [5]: 2 nM
koff [5]: 0.0043 s⁻¹
kon [5]: 2.2e+06 M⁻¹ s⁻¹
Kd [6]: 16 nM
Kd [7]: 12 nM
koff [7]: 0.039 s⁻¹
kon [7]: 3.4e+06 M⁻¹ s⁻¹
Kd [8]: 13 nM
koff [8]: 0.041 s⁻¹
kon [8]: 3.2e+06 M⁻¹ s⁻¹
Kd [9]: 17 nM
Kd [10]: 16 nM
Kd [11]: 12.5 nM
koff [11]: 0.0374 s⁻¹
kon [11]: 3.01e+06 M⁻¹ s⁻¹
Kd [12]: 2 nM
koff [12]: 0.0041 s⁻¹
kon [12]: 2e+06 M⁻¹ s⁻¹

B5: humanized XT-M4 hVH-V2.0 / hVL-V2.11 (antibody, human IgG1, V domains shown)
VH: B1 VH
VL: B1 VL with K45R
IC50 [13]: 0.15 to 1.05 µg/mL and 0.1 to 0.45 µg/mL

B7: XT-H2 VL-VH ScFv construct (scFv)
scFv: DVVLTQTPLSLPVNIGDQASISCKSTKSLLNSDGFTYLDWYLQKPGQSPQLLIYLVSDRFSGVPDRFSGSGSGTDFTLTISRVEAEDLGVYYCFQSNSLPLTFGSGTKLEIKDGGGSGGGGSGGGGSSQVQLQQSGAELAKPGASVKMSCKASGYTFTTYWMHWVKQRPGQGLYWIGYINPSTGYTEYNQKFKDKATLTADKSSSTAYMQLSSLTSEDSAVYYCARWAGYTIDYWGQGTSVTVSS
notes: Tags (Flag when translated in vitro, His when made in E. coli) are inferred from the detection antibodies
binding result [14]: binds
binding result (BSA): no binding

B8: XT-H2 VH-VL ScFv construct (scFv)
scFv: QVQLQQSGAELAKPGASVKMSCKASGYTFTTYWMHWVKQRPGQGLYWIGYINPSTGYTEYNQKFKDKATLTADKSSSTAYMQLSSLTSEDSAVYYCARWAGYTIDYWGQGTSVTVSSDGGGSGGGGSGGGGSSDVVLTQTPLSLPVNIGDQASISCKSTKSLLNSDGFTYLDWYLQKPGQSPQLLIYLVSDRFSGVPDRFSGSGSGTDFTLTISRVEAEDLGVYYCFQSNSLPLTFGSGTKLEIK
notes: Flag tag inferred from detection
binding result [14]: binds

B9: XT-M4 VH-VL ScFv construct (scFv)
scFv: EVQLVESGGGLVQPGRSLKLSCVVSGFTFNNYWMTWIRQTPGKGLEWVASINNSGDNTYYPDSVKDRFTISRDNAKSTLYLQMNSLRSEDTATYYCTRGGDITTGFDYWGQGVMVTVSSDGGGSGGGGSGGGGSSDIQMTQSPSSMSVSLGDTITITCRASQDVGIYVNWFQQKPGKSPRRMIYRATNLADGVPSRFSGSRSGSIYSLTISSLESEDVADYHCLEFDEHPLTFGSGTKVEIK
notes: as for B8
binding result [14]: binds

Results, then the binder that gave them:

IC50 [13]: 1.5 µg/mL
B3: humanized XT-M4 hVH-V2.0 / hVL-V2.13 (antibody, human IgG1, V domains shown)
VH: B1 VH
VL: B1 VL with F36Y

IC50 [13]: 2.7 µg/mL
B4: humanized XT-M4 hVH-V2.0 / hVL-V2.12 (antibody, human IgG1, V domains shown)
VH: B1 VH
VL: B1 VL with F36Y, K45R

IC50 [13]: 0.2 µg/mL
B6: humanized XT-M4 hVH-V2.0 / hVL-V2.14 (antibody, human IgG1, V domains shown)
VH: B1 VH
VL: B1 VL

binding result [14]: binds
binding result (BSA): no binding
B10: XT-M4 VL-VH ScFv construct (scFv)
scFv: DIQMTQSPSSMSVSLGDTITITCRASQDVGIYVNWFQQKPGKSPRRMIYRATNLADGVPSRFSGSRSGSIYSLTISSLESEDVADYHCLEFDEHPLTFGSGTKVEIKDGGGSGGGGSGGGGSSEVQLVESGGGLVQPGRSLKLSCVVSGFTFNNYWMTWIRQTPGKGLEWVASINNSGDNTYYPDSVKDRFTISRDNAKSTLYLQMNSLRSEDTATYYCTRGGDITTGFDYWGQGVMVTVSS
notes: Tags (Flag in vitro, His in E. coli) inferred from detection
